Results on seven substances are retold here after patent publication US20250276077A1, “EPHA2 ANTIBODIES” (Immunome, Inc., priority 2022, published 2025).

For test [1], the target named is Human EphA2 (human) (UniProt P29317). The test is described as follows: IHC/IF on frozen human tumor tissue: NSCLC-Adeno.
For test [2] the target is unchanged. The test is described as follows: IHC/IF on frozen human tumor tissue: MELA.
Test [3] shares this target. The test is described as follows: IHC/IF on frozen human tumor tissue: HNC.
The target is the same in test [4]. The test is described as follows: IHC/IF on frozen human tumor tissue: Her2+ BRC.
Test [5] has the same target. Kind of test: IHC/IF on frozen human tumor tissue: OVA.
For test [6] the target is unchanged. Kind of test: IHC/IF on frozen human tumor tissue: PANC.
Test [7] has the same target. Kind of test: IHC/IF on frozen human tumor tissue: UCEC-papillary.
Test [8] shares this target. The test is described as follows: IHC/IF on frozen human tumor tissue: GAC.
For test [9] the target is unchanged. Kind of test: IHC/IF on frozen human tumor tissue: RCC-papillary.
Test [10] shares this target. Kind of test: IHC/IF on frozen human tumor tissue: CRC.
The target is the same in test [11]. The test is described as follows: IHC/IF on frozen human tumor tissue: UCEC-clear cell.
The target is the same in test [12]. The test is described as follows: IHC/IF on frozen human tumor tissue: URO.
Test [13] shares this target. Kind of test: IHC/IF on frozen human tumor tissue: ESO.
For test [14] the target is unchanged. The test is described as follows: IHC/IF on frozen human tumor tissue: TNBC.
The target is the same in test [15]. The test is described as follows: IHC/IF on frozen human tumor tissue: ANC.
Test [16] has the same target. The test is described as follows: IHC/IF on frozen human tumor tissue: NSCLC-SQ.
Test [17] shares this target. Kind of test: IHC/IF on frozen human tumor tissue: STS.
Test [18] has the same target. The test is described as follows: IHC/IF on frozen human tumor tissue: PROC.
The target is the same in test [19]. Kind of test: IHC/IF on frozen human tumor tissue: RCC-clear cell.
The target is the same in test [20]. The test is described as follows: IHC/IF on frozen human tumor tissue: ER+ BRC.
Test [21] has the same target. Kind of test: IHC/IF on frozen human tumor tissue: UCEC-endometrioid.
In test [22] the target is Human EphA2 (ephrin receptor A2), native, in human tumor tissue (human) (UniProt P29317). Kind of test: tissue staining of human cancer samples, 30 ug/ml (the box on the sheet prints AB-010017 twice).
Test [23] shares this target. The test is described as follows: tissue staining of human cancer samples, 3 ug/ml.
The target is the same in test [24]. The test is described as follows: tissue staining of human cancer samples, 30 ug/ml.

As to 6997S (around Arg907) (antibody), the IHC score is 1 in test [1]; 2 in test [2]; 1 in test [3]; 1 in test [4]; 1 in [5]; 1 in test [6]. The IHC score in [7] was 2; in test [8], 1; in test [9], 1; in test [10], 1; in test [11], 2; in test [12], 1. In addition, the IHC score in test [13] was found to be 2; in [14], 1; in test [15], 2; in test [16] it was 1; in test [17] it was 1; in test [18], 1. Further, the IHC score in test [19], in [20] and in test [21] was 1 in each case.

In test [22], “AB-010016 (based on Medi-547; mouse IgG2a format) (antibody)” registered a Reactive (% of samples), Bladder Cancer (Urothelial) of 50%; a Reactive (% of samples), Breast Cancer of 47%; a Reactive (% of samples), Cervical Cancer (Squamous) of 40%; a Reactive (% of samples), Colorectal Cancer (Adenocarcinoma) of 40%. In test [22], this substance showed a Reactive (% of samples), Esophageal Cancer (Squamous) of 27%; a Reactive (% of samples), Liver Cancer (HCC) of 80%; a Reactive (% of samples), Melanoma of 29%; a Reactive (% of samples), Non-Small Cell Lung Cancer of 26%. Also, in test [22], the Reactive (% of samples), Ovarian Cancer is 53%; the Reactive (% of samples), Renal Cancer came out at 0%; the Reactive (% of samples), Soft Tissue Sarcoma was found to be 9%; the Reactive (% of samples), Stomach Cancer (Adenocarcinoma) turned out to be 50%. In test [22], this substance showed a Reactive (% of samples), Testicular Cancer of 28%; a Reactive (% of samples), Thyroid Cancer of 44%; a Reactive (% of samples), Uterine Cancer of 21%. In test [23], the Reactive (% of samples), Bladder Urothelial Carcinoma was 33%; the Reactive (% of samples), Breast Cancer was found to be 0%; the Reactive (% of samples), Cervical Squamous Cell Carcinoma is 0%; the Reactive (% of samples), Colorectal Adenocarcinoma is 10%. In test [23], the Reactive (% of samples), Head & Neck Squamous Cell Carcinoma is 0%; the Reactive (% of samples), Liver Hepatocellular Cell Carcinoma came out at 7%; the Reactive (% of samples), Melanoma is 0%; the Reactive (% of samples), Non-Small Cell Lung Cancer came to 5%. In test [23], this substance showed a Reactive (% of samples), Ovarian Cancer of 0%; a Reactive (% of samples), Renal Cancer of 0%; a Reactive (% of samples), Soft Tissue Sarcoma of 0%; a Reactive (% of samples), Stomach Adenocarcinoma of 0%. In test [23], the Reactive (% of samples), Testicular Cancer is 0%; the Reactive (% of samples), Thyroid Cancer came out at 0%; the Reactive (% of samples), Uterine Cancer was 0%.

In [24], “AB-010017 (based on MM-310; mouse IgG2a format) (antibody)” registered a Reactive (% of samples), Bladder Cancer (Urothelial) of 38%; a Reactive (% of samples), Breast Cancer of 8%; a Reactive (% of samples), Cervical Cancer (Squamous) of 36%; a Reactive (% of samples), Colorectal Cancer (Adenocarcinoma) of 10%. In test [24], this substance had a Reactive (% of samples), Esophageal Cancer (Squamous) of 13%; a Reactive (% of samples), Liver Cancer (HCC) of 43%; a Reactive (% of samples), Melanoma of 7%; a Reactive (% of samples), Non-Small Cell Lung Cancer of 5%. For the same substance, in test [24], the Reactive (% of samples), Ovarian Cancer turned out to be 47%; the Reactive (% of samples), Renal Cancer stood at 12%; the Reactive (% of samples), Soft Tissue Sarcoma was found to be 3%; the Reactive (% of samples), Stomach Cancer (Adenocarcinoma) stood at 25%. In test [24], the Reactive (% of samples), Testicular Cancer was determined as 0%; the Reactive (% of samples), Thyroid Cancer was 0%; the Reactive (% of samples), Uterine Cancer turned out to be 7%. Further, in [23], the Reactive (% of samples), Bladder Urothelial Carcinoma came to 50%; the Reactive (% of samples), Breast Cancer turned out to be 0%; the Reactive (% of samples), Cervical Squamous Cell Carcinoma turned out to be 27%; the Reactive (% of samples), Head & Neck Squamous Cell Carcinoma came to 38%. In test [23], the Reactive (% of samples), Liver Hepatocellular Cell Carcinoma was 0%; the Reactive (% of samples), Non-Small Cell Lung Cancer amounted to 11%; the Reactive (% of samples), Ovarian Cancer stood at 6%; the Reactive (% of samples), Renal Cancer was found to be 0%. Besides, in test [23], the Reactive (% of samples), Soft Tissue Sarcoma is 3%; the Reactive (% of samples), Stomach Adenocarcinoma stood at 25%; the Reactive (% of samples), Testicular Cancer amounted to 0%; the Reactive (% of samples), Thyroid Cancer is 8%.

As for Ab73254 (extracellular) (antibody), the IHC score amounted to 2 in [1]; 2 in [2]; 1 in test [3]; 1 in [4]; 1 in test [5]; 1 in [6]. The IHC score in [7] turned out to be 1; in test [8] it was 1; in test [9] it was 1; in [10], 1; in test [11] it was 2; in test [12] it was 1. Besides, the IHC score was determined as 1 in test [13]; 1 in [14]; 1 in [15]; 2 in test [16]; 1 in [17]; 1 in test [18]. The IHC score in test [19], in test [20] and in [21] was 1 each time.

As for LS-B1794-50 (AA 450-500) (antibody), the IHC score in [1] turned out to be 2; in test [2], 2; in [3], 1; in test [4], 1; in test [5], 1; in test [6] it was 1. The IHC score in test [7] stood at 2; in [8], 1; in [9], 2; in test [10], 1; in test [11], 2; in test [12] it was 1. Further, the IHC score in test [13], in test [14], in test [15], in test [16], in test [17] and in test [18] was 1 in each case. In addition, the IHC score in test [19], in test [20] and in test [21] was 1 in each case.

Turning to “LS-C36249-100 (extracellular) (antibody)”, the IHC score was determined as 2 in [1]; 3 in test [2]; 2 in [3]; 2 in test [4]; 2 in [5]; 1 in test [6]. The IHC score in test [7] came to 3; in [8] it was 1; in test [9], 1; in test [10] it was 1; in [11], 2; in [12], 1. The IHC score in [13] turned out to be 2; in test [14], 1; in [15] it was 2; in test [16] it was 2; in test [17], 2; in test [18], 1. The IHC score in test [19] is 1; in test [20], 1; in [21] it was 2.

As to LS-C100255-400 (AA 30-60) (antibody), the IHC score was 1 in test [1]; 2 in test [2]; 1 in test [3]; 1 in [4]; 1 in test [5]; 1 in test [6]. In addition, the IHC score in test [7] amounted to 2; in test [8], 1; in [9] it was 1; in test [10] it was 1; in [11] it was 2; in [12], 1. For the same substance, the IHC score in [13], in [14], in test [15], in [16], in [17] and in test [18] was 1 throughout. Besides, the IHC score in test [19], in test [20] and in test [21] was 1 in each case.
